Laboratory results: patent US20250346589A1, “RADIOISOTOPE LABELED SSTR2-AGONISTS WITH LINKERS” (Erasmus University Medical Center Rotterdam, priority 2022, published 2025)

Columns and labels:
in vitro = in vitro ADME; conditions: for remaining at 1 h / remaining at 4 h / remaining at 24 h: mouse, serum, Stability in mouse serum (%)
Description: The ^203Pb-labelled compounds (˜2 MBq) or the ^212Pb-labelled compounds (˜70 kBq) were incubated in 300 μL of phosphate buffered saline (PBS; 0.1 M, pH 7.4) or mouse serum at 37° C. Stability of the radiolabed peptides was monitored at 1, 4 and 24 h post incubation. The samples in PBS were directly analyzed by radio-HPLC without any pretreatment. However, samples in mouse serum were mixed with an equal volume of acetonitrile to precipitate the proteins. The solution was centrifuged twice for 5 min at 13,000 rpm, and the supernatant was analyzed by radio-HPLC using Method 1 for lead-203 and Method 2 for lead-212.

[1] = test system: H69-tumor xenograft and organs; parameters: species or system mice; conditions: mouse, in vivo, iv
Description: Six-week-old male Balb/c nu/nu-specific and opportunistic pathogen-tree (SOPF) mice (Janvier Labs, Le Genest-Saint-Isle, France) were housed in individually ventilated cages, with 4 mice per cage. Upon arrival, mice were acclimated for 1 week, with access to food and water ad libitum. Mice were subcutaneously inoculated on the right shoulder with NCI-H69 cells (5×10^6 cells suspended in 100 μL of ⅓ Matrigel (Corning Inc., Corning, NY, USA) and ⅔ Hank's balanced salt solution (Gibco). NCI-H69 xenografts were allowed to grow for 3 weeks. Tumor sizes were 391±173 mm^3 at the start of the studies. All animal experiments were approved by the Animal Welfare Committee of the Erasmus MC and were conducted in agreement with institutional guidelines (license number: AVD101002017867).
Biodistribution studies were performed to determine tumor and organ uptake of [^212Pb]Pb-DOTAMTATE, [^212Pb]Pb-DOTAM-Amcha-TATE or [^212Pb]Pb-DOTAM-Pip-TATE. Animals (n=4 for each time point and each compound) were injected intravenously with an average of 100 kBq/0.5 nmol at t=0. At 3 selected time points (1, 4 and 24 h) p.i. blood was collected via cardiac puncture under isoflurane/O2 anesthesia, after which the mice were sacrificed. The tumor and organs of interest (prostate, pancreas, spleen, liver, GI tract (stomach, small intestine, large intestine), kidneys, lungs, heart, muscle, bone and tail) were excised, washed in PBS and blotted dry. To confirm receptor specificity of the 3 radiotracers uptake, NCI-H69-xenografted mice were co-injected with [212Pb] Pb-DOTAMTATE, [^212Pb]Pb-DOTAM-Amcha-TATE or [^212Pb]Pb-DOTAM-Pip-TATE plus an excess (25 nmol) of the respective unlabelled peptide (n=3), after which tumor and organ uptake was determined at 24 h p.i. The blood, tumor, and relevant organs were weighed and measured in a γ-counter. To determine the total injected radioactivity per animal, calibration curve with lead-212 was determined. The percentage of injected dose per gram (% ID/g) was determined for each tissue sample and corrected for both the injected volume and % ID present at the injection site (the tail). […] Pb-DOTAMTATE. In Table 3, the absorbed dose per administered activity (Gy/MBq; with RBE=5) in H69-tumor xenograft and organs for [^212Pb]Pb-DOTAM-TATE, [^212Pb]Pb-DOTAM-Amcha-TATE and [^212Pb]Pb-DOTAM-Pip-TATE is given.

Compound | Stability in mouse serum (%) (in vitro; 1 h) | Stability in mouse serum (%) (in vitro; 4 h) | Stability in mouse serum (%) (in vitro; 24 h) | remaining at 1 h (in vitro) [%] | remaining at 4 h (in vitro) [%] | remaining at 24 h (in vitro) [%] | further results
C[C@@H](O)[C@H](NC(=O)[C@@H]1CSSC[C@H](NC(=O)[C@@H](Cc2ccccc2)NC(=O)[C@H]2CC[C@H](CNC(=O)CN3CCN(CC(N)=O)CCN(CC(N)=O)CCN(CC(N)=O)CC3)CC2)C(=O)N[C@@H](Cc2ccc(O)cc2)C(=O)N[C@H](Cc2c[nH]c3ccccc23)C(=O)N[C@@H](CCCCN)C(=O)N[C@@H]([C@@H](C)O)C(=O)N1)C(=O)O [[^203Pb]Pb-DOTAM-Amcha-TATE] [metal not drawn] | 100 | 100 | 100 | – | – | – | –
C[C@@H](O)[C@H](NC(=O)[C@@H]1CSSC[C@H](NC(=O)[C@@H](Cc2ccccc2)NC(=O)CN2CCC(NC(=O)CN3CCN(CC(N)=O)CCN(CC(N)=O)CCN(CC(N)=O)CC3)CC2)C(=O)N[C@@H](Cc2ccc(O)cc2)C(=O)N[C@H](Cc2c[nH]c3ccccc23)C(=O)N[C@@H](CCCCN)C(=O)N[C@@H]([C@@H](C)O)C(=O)N1)C(=O)O [[^203Pb]Pb-DOTAM-Pip-TATE] [metal not drawn] | 97 | 97 | 97 | – | – | – | –
C[C@@H](O)[C@H](NC(=O)[C@@H]1CSSC[C@H](NC(=O)[C@@H](Cc2ccccc2)NC(=O)CN2CCN(CC(N)=O)CCN(CC(N)=O)CCN(CC(N)=O)CC2)C(=O)N[C@@H](Cc2ccc(O)cc2)C(=O)N[C@H](Cc2c[nH]c3ccccc23)C(=O)N[C@@H](CCCCN)C(=O)N[C@@H]([C@@H](C)O)C(=O)N1)C(=O)O [[^203Pb]Pb-DOTAM-TATE] [metal not drawn, reference compound] | 99 | 99 | 99 | – | – | – | –
C[C@@H](O)[C@H](NC(=O)[C@@H]1CSSC[C@H](NC(=O)[C@@H](Cc2ccccc2)NC(=O)[C@H]2CC[C@H](CNC(=O)CN3CCN(CC(N)=O)CCN(CC(N)=O)CCN(CC(N)=O)CC3)CC2)C(=O)N[C@@H](Cc2ccc(O)cc2)C(=O)N[C@H](Cc2c[nH]c3ccccc23)C(=O)N[C@@H](CCCCN)C(=O)N[C@@H]([C@@H](C)O)C(=O)N1)C(=O)O [[^212Pb]Pb-DOTAM-Amcha-TATE, metal not drawn] | – | – | – | 96 | 96 | 93 | –
C[C@@H](O)[C@H](NC(=O)[C@@H]1CSSC[C@H](NC(=O)[C@@H](Cc2ccccc2)NC(=O)[C@H]2CC[C@H](CNC(=O)CN3CCN(CC(N)=O)CCN(CC(N)=O)CCN(CC(N)=O)CC3)CC2)C(=O)N[C@@H](Cc2ccc(O)cc2)C(=O)N[C@H](Cc2c[nH]c3ccccc23)C(=O)N[C@@H](CCCCN)C(=O)N[C@@H]([C@@H](C)O)C(=O)N1)C(=O)O [[^212Pb]Pb-DOTAM-Amcha-TATE] [metal not drawn] | – | – | – | – | – | – | Absorbed dose per administered activity, Kidneys [1]: 121.73 ± 14.57 Gy/MBq; Absorbed dose per administered activity, Large Intestines [1]: 2.03 ± 0.26 Gy/MBq; Absorbed dose per administered activity, Liver [1]: 9.03 ± 2.24 Gy/MBq; Absorbed dose per administered activity, Lung [1]: 3.20 ± 0.40 Gy/MBq; Absorbed dose per administered activity, Pancreas [1]: 5.40 ± 0.14 Gy/MBq; Absorbed dose per administered activity, Spleen [1]: 0.73 ± 0.19 Gy/MBq; Absorbed dose per administered activity, Stomach wall [1]: 5.78 ± 0.77 Gy/MBq; Absorbed dose per administered activity, Tumor [1]: 35.49 ± 9.89 Gy/MBq
C[C@@H](O)[C@H](NC(=O)[C@@H]1CSSC[C@H](NC(=O)[C@@H](Cc2ccccc2)NC(=O)CN2CCC(NC(=O)CN3CCN(CC(N)=O)CCN(CC(N)=O)CCN(CC(N)=O)CC3)CC2)C(=O)N[C@@H](Cc2ccc(O)cc2)C(=O)N[C@H](Cc2c[nH]c3ccccc23)C(=O)N[C@@H](CCCCN)C(=O)N[C@@H]([C@@H](C)O)C(=O)N1)C(=O)O [[^212Pb]Pb-DOTAM-Pip-TATE, metal not drawn] | – | – | – | 99 | 99 | 96 | –
C[C@@H](O)[C@H](NC(=O)[C@@H]1CSSC[C@H](NC(=O)[C@@H](Cc2ccccc2)NC(=O)CN2CCN(CC(N)=O)CCN(CC(N)=O)CCN(CC(N)=O)CC2)C(=O)N[C@@H](Cc2ccc(O)cc2)C(=O)N[C@H](Cc2c[nH]c3ccccc23)C(=O)N[C@@H](CCCCN)C(=O)N[C@@H]([C@@H](C)O)C(=O)N1)C(=O)O [[^212Pb]Pb-DOTAM-TATE, metal not drawn, reference compound] | – | – | – | 99 | 99 | 97 | –
C[C@@H](O)[C@H](NC(=O)[C@@H]1CSSC[C@H](NC(=O)[C@@H](Cc2ccccc2)NC(=O)CN2CCN(CC(N)=O)CCN(CC(N)=O)CCN(CC(N)=O)CC2)C(=O)N[C@@H](Cc2ccc(O)cc2)C(=O)N[C@H](Cc2c[nH]c3ccccc23)C(=O)N[C@@H](CCCCN)C(=O)N[C@@H]([C@@H](C)O)C(=O)N1)C(=O)O [[^212Pb]Pb-DOTAM-TATE] [metal not drawn, reference compound] | – | – | – | – | – | – | Absorbed dose per administered activity, Kidneys [1]: 140.03 ± 17.95 Gy/MBq; Absorbed dose per administered activity, Large Intestines [1]: 1.64 ± 0.30 Gy/MBq; Absorbed dose per administered activity, Liver [1]: 6.93 ± 0.64 Gy/MBq; Absorbed dose per administered activity, Lung [1]: 2.06 ± 0.29 Gy/MBq; Absorbed dose per administered activity, Pancreas [1]: 3.65 ± 0.28 Gy/MBq; Absorbed dose per administered activity, Spleen [1]: 0.56 ± 0.14 Gy/MBq; Absorbed dose per administered activity, Stomach wall [1]: 4.42 ± 1.30 Gy/MBq; Absorbed dose per administered activity, Tumor [1]: 26.61 ± 19.27 Gy/MBq
